# Data reported in paper PMC12416549 (2024).
# T1: TNFR1 (Homo sapiens, UniProt P19438)
# T1 chain: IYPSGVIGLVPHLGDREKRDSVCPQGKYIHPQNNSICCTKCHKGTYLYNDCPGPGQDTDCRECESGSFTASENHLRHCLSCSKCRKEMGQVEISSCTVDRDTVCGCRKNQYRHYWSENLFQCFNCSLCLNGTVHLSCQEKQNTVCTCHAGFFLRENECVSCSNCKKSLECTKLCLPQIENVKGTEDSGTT
# Biological target: T1, TNFR1
# Assay: yeast display SC50
row,apparent Kd (screen),Binder
1,0.304 nM,L79K (designed binder) SMEEEVEKAAKEYEKKKKEAIEKHLEKLKAKDKEAAERFLKELEEAAKEYAKDEAKTMSEEEAKRRAKKYKEKVLLSEKSEEEQKEIKEAEEKLVRTILKYVEEAAK
2,1.05 nM,R96M (designed binder) SMEEEVEKAAKEYEKKKKEAIEKHLEKLKAKDKEAAERFLKELEEAAKEYAKDEAKTMSEEEAKRRAKKYKEKVLLSELSEEEQKEIKEAEEKLVMTILKYVEEAAK
3,3.3 nM,E92T (designed binder) SMEEEVEKAAKEYEKKKKEAIEKHLEKLKAKDKEAAERFLKELEEAAKEYAKDEAKTMSEEEAKRRAKKYKEKVLLSELSEEEQKEIKEAETKLVRTILKYVEEAAK
4,4.83 nM,L94R (designed binder) SMEEEVEKAAKEYEKKKKEAIEKHLEKLKAKDKEAAERFLKELEEAAKEYAKDEAKTMSEEEAKRRAKKYKEKVLLSELSEEEQKEIKEAEEKRVRTILKYVEEAAK
5,1.27 nM,S80T (designed binder) SMEEEVEKAAKEYEKKKKEAIEKHLEKLKAKDKEAAERFLKELEEAAKEYAKDEAKTMSEEEAKRRAKKYKEKVLLSELTEEEQKEIKEAEEKLVRTILKYVEEAAK
6,2.73 nM,E89R (designed binder) SMEEEVEKAAKEYEKKKKEAIEKHLEKLKAKDKEAAERFLKELEEAAKEYAKDEAKTMSEEEAKRRAKKYKEKVLLSELSEEEQKEIKRAEEKLVRTILKYVEEAAK
7,8.56 nM,A63K (designed binder) SMEEEVEKAAKEYEKKKKEAIEKHLEKLKAKDKEAAERFLKELEEAAKEYAKDEAKTMSEEEKKRRAKKYKEKVLLSELSEEEQKEIKEAEEKLVRTILKYVEEAAK
8,11.4 nM,E91K (designed binder) SMEEEVEKAAKEYEKKKKEAIEKHLEKLKAKDKEAAERFLKELEEAAKEYAKDEAKTMSEEEAKRRAKKYKEKVLLSELSEEEQKEIKEAKEKLVRTILKYVEEAAK
9,24.4 nM,R66H (designed binder) SMEEEVEKAAKEYEKKKKEAIEKHLEKLKAKDKEAAERFLKELEEAAKEYAKDEAKTMSEEEAKRHAKKYKEKVLLSELSEEEQKEIKEAEEKLVRTILKYVEEAAK
10,16.7 nM,R66T (designed binder) SMEEEVEKAAKEYEKKKKEAIEKHLEKLKAKDKEAAERFLKELEEAAKEYAKDEAKTMSEEEAKRTAKKYKEKVLLSELSEEEQKEIKEAEEKLVRTILKYVEEAAK
11,1.54 nM,K107E (designed binder) SMEEEVEKAAKEYEKKKKEAIEKHLEKLKAKDKEAAERFLKELEEAAKEYAKDEAKTMSEEEAKRRAKKYKEKVLLSELSEEEQKEIKEAEEKLVRTILKYVEEAAE
12,1.05 nM,K100W (designed binder) SMEEEVEKAAKEYEKKKKEAIEKHLEKLKAKDKEAAERFLKELEEAAKEYAKDEAKTMSEEEAKRRAKKYKEKVLLSELSEEEQKEIKEAEEKLVRTILWYVEEAAK

# The next lines start with the binder.
row,Binder,apparent Kd (screen)
1,Y50M (designed binder) SMEEEVEKAAKEYEKKKKEAIEKHLEKLKAKDKEAAERFLKELEEAAKEMAKDEAKTMSEEEAKRRAKKYKEKVLLSELSEEEQKEIKEAEEKLVRTILKYVEEAAK,0.446 nM
2,A55D (designed binder) SMEEEVEKAAKEYEKKKKEAIEKHLEKLKAKDKEAAERFLKELEEAAKEYAKDEDKTMSEEEAKRRAKKYKEKVLLSELSEEEQKEIKEAEEKLVRTILKYVEEAAK,12.5 nM
3,E22I (designed binder) SMEEEVEKAAKEYEKKKKEAIIKHLEKLKAKDKEAAERFLKELEEAAKEYAKDEAKTMSEEEAKRRAKKYKEKVLLSELSEEEQKEIKEAEEKLVRTILKYVEEAAK,1.16 nM
4,S59R (designed binder) SMEEEVEKAAKEYEKKKKEAIEKHLEKLKAKDKEAAERFLKELEEAAKEYAKDEAKTMREEEAKRRAKKYKEKVLLSELSEEEQKEIKEAEEKLVRTILKYVEEAAK,1.05 nM
5,L25F (designed binder) SMEEEVEKAAKEYEKKKKEAIEKHFEKLKAKDKEAAERFLKELEEAAKEYAKDEAKTMSEEEAKRRAKKYKEKVLLSELSEEEQKEIKEAEEKLVRTILKYVEEAAK,0.49 nM
6,L43N (designed binder) SMEEEVEKAAKEYEKKKKEAIEKHLEKLKAKDKEAAERFLKENEEAAKEYAKDEAKTMSEEEAKRRAKKYKEKVLLSELSEEEQKEIKEAEEKLVRTILKYVEEAAK,0.446 nM
7,R38F (designed binder) SMEEEVEKAAKEYEKKKKEAIEKHLEKLKAKDKEAAEFFLKELEEAAKEYAKDEAKTMSEEEAKRRAKKYKEKVLLSELSEEEQKEIKEAEEKLVRTILKYVEEAAK,1.05 nM
8,K16M (designed binder) SMEEEVEKAAKEYEKMKKEAIEKHLEKLKAKDKEAAERFLKELEEAAKEYAKDEAKTMSEEEAKRRAKKYKEKVLLSELSEEEQKEIKEAEEKLVRTILKYVEEAAK,0.446 nM
9,S59D (designed binder) SMEEEVEKAAKEYEKKKKEAIEKHLEKLKAKDKEAAERFLKELEEAAKEYAKDEAKTMDEEEAKRRAKKYKEKVLLSELSEEEQKEIKEAEEKLVRTILKYVEEAAK,2.25 nM
10,E42L (designed binder) SMEEEVEKAAKEYEKKKKEAIEKHLEKLKAKDKEAAERFLKLLEEAAKEYAKDEAKTMSEEEAKRRAKKYKEKVLLSELSEEEQKEIKEAEEKLVRTILKYVEEAAK,7.07 nM
11,L28P (designed binder) SMEEEVEKAAKEYEKKKKEAIEKHLEKPKAKDKEAAERFLKELEEAAKEYAKDEAKTMSEEEAKRRAKKYKEKVLLSELSEEEQKEIKEAEEKLVRTILKYVEEAAK,13.8 nM
12,A30I (designed binder) SMEEEVEKAAKEYEKKKKEAIEKHLEKLKIKDKEAAERFLKELEEAAKEYAKDEAKTMSEEEAKRRAKKYKEKVLLSELSEEEQKEIKEAEEKLVRTILKYVEEAAK,0.653 nM
13,E49D (designed binder) SMEEEVEKAAKEYEKKKKEAIEKHLEKLKAKDKEAAERFLKELEEAAKDYAKDEAKTMSEEEAKRRAKKYKEKVLLSELSEEEQKEIKEAEEKLVRTILKYVEEAAK,4.39 nM
14,K23Y (designed binder) SMEEEVEKAAKEYEKKKKEAIEYHLEKLKAKDKEAAERFLKELEEAAKEYAKDEAKTMSEEEAKRRAKKYKEKVLLSELSEEEQKEIKEAEEKLVRTILKYVEEAAK,0.368 nM
15,R38W (designed binder) SMEEEVEKAAKEYEKKKKEAIEKHLEKLKAKDKEAAEWFLKELEEAAKEYAKDEAKTMSEEEAKRRAKKYKEKVLLSELSEEEQKEIKEAEEKLVRTILKYVEEAAK,0.446 nM
16,E54C (designed binder) SMEEEVEKAAKEYEKKKKEAIEKHLEKLKAKDKEAAERFLKELEEAAKEYAKDCAKTMSEEEAKRRAKKYKEKVLLSELSEEEQKEIKEAEEKLVRTILKYVEEAAK,11.4 nM
17,Y50S (designed binder) SMEEEVEKAAKEYEKKKKEAIEKHLEKLKAKDKEAAERFLKELEEAAKESAKDEAKTMSEEEAKRRAKKYKEKVLLSELSEEEQKEIKEAEEKLVRTILKYVEEAAK,5.31 nM
18,S1Y (designed binder) YMEEEVEKAAKEYEKKKKEAIEKHLEKLKAKDKEAAERFLKELEEAAKEYAKDEAKTMSEEEAKRRAKKYKEKVLLSELSEEEQKEIKEAEEKLVRTILKYVEEAAK,3 nM
19,D53P (designed binder) SMEEEVEKAAKEYEKKKKEAIEKHLEKLKAKDKEAAERFLKELEEAAKEYAKPEAKTMSEEEAKRRAKKYKEKVLLSELSEEEQKEIKEAEEKLVRTILKYVEEAAK,0.869 nM
20,V6Y (designed binder) SMEEEYEKAAKEYEKKKKEAIEKHLEKLKAKDKEAAERFLKELEEAAKEYAKDEAKTMSEEEAKRRAKKYKEKVLLSELSEEEQKEIKEAEEKLVRTILKYVEEAAK,0.446 nM
21,E12M (designed binder) SMEEEVEKAAKMYEKKKKEAIEKHLEKLKAKDKEAAERFLKELEEAAKEYAKDEAKTMSEEEAKRRAKKYKEKVLLSELSEEEQKEIKEAEEKLVRTILKYVEEAAK,0.539 nM
22,S1C (designed binder) CMEEEVEKAAKEYEKKKKEAIEKHLEKLKAKDKEAAERFLKELEEAAKEYAKDEAKTMSEEEAKRRAKKYKEKVLLSELSEEEQKEIKEAEEKLVRTILKYVEEAAK,15.2 nM
23,E3N (designed binder) SMNEEVEKAAKEYEKKKKEAIEKHLEKLKAKDKEAAERFLKELEEAAKEYAKDEAKTMSEEEAKRRAKKYKEKVLLSELSEEEQKEIKEAEEKLVRTILKYVEEAAK,2.73 nM
